{"source": "patent US20250051458A1", "about": "“Methods for Treating Neurodegeneration Targeting IGF1/IGF1R” (The Schepens Eye Research Institute, Inc., priority 2021, published 2025)", "system": "microglial cultures isolated from the retina and brain or the BV2 cells", "assay": "COX2 immunostaining in LPS-treated microglial cultures (retina, brain, BV2 cells)", "type": "cell-based, mouse", "details": "IGFBPL1 added 6 hr after LPS", "protocol": "For primary retinal microglia isolation, microglia cells were isolated from mice retina using magnetic CD11b microbead (BD, 558013). The purification protocol was following manufacture's instructions. Briefly, the papain dissociated retinal cells were resuspended into diluted BD IMag™ Buffer (BD, Cat. No. 552362). After 6-8 mins washing at 300 g, 50 ul of magnetic CD11b microbeads were added for every 10^7 total cells and then incubated for 30 mins at 6-12° C. Then bring the BD IMag-particle labeling volume up to 1-8×10^7 cells/ml with 1×BD IMag™ buffer, and immediately place the tube on the Cell Separation Magnet (BD, Cat. No. 552311). Carefully aspirate off the supernatant after 6-8 minutes incubation at room temperature, and then repeat two times washing. The positive fractions left in the tube were then collected for culture. Around 3000 cells per well were seeded in 8-well Nunc® Lab-Tek™ II Chamber Slide™ (Thermo Scientific, Cat. No. 154534PK). The isolated microglial cells were cultured at 37° C. with 5% C02 in DMEM with 10% FBS and 50 ng/ml rmCSF1 (PeproTech, Cat. No. 315-02).\nFor primary mouse brain microglia isolation, we optimized our protocol based previously reported protocol^2. First step was to collect brain after perfusing mice with saline. […]"}
{"molecule": "IGFBPL1: insulin-like growth factor binding protein like protein 1; recombinant protein (R&D system, 4130-BL) (protein) LGLRDAGRRHPECSPCQQDRCPAPSPCPAPWISARDECGCCARCLGAEGASCGGPVGSRCGPGLVCASRASGTAPEGTGLCVCAQRGAVCGSDGRSYSSICALRLRARHAPRAHHGHLHKARDGPCEFAPVVLMPPRDIHNVTGTQVFLSCEVKAVPTPVITWKKVKHSPEGTEGLEELPGDHVNIAVQVRGGPSDHETTSWILINPLRKEDEGVYHCHAANAIGEAQSHGTVTVLDLNRYKSLYSSVPGDLL", "values": [{"measurement": "LPS-induced COX2 upregulation", "value": "suppressed"}]}
